Reference: paper PMC6858323, “Multiple conformations facilitate PilT function in the type IV pilus” (Nature Communications, 2019)

Target: the molecule itself
Assay: cryoEM 2D class averages; PilT^Pa 0.75 mg/ml without added nucleotide, 4 °C; top-view 2D class averages compared with projections of PilT crystal structures

Protein | stoichiometry N
PilT from Pseudomonas aeruginosa (PilT^Pa), purified (enzyme, PilT, Pseudomonas aeruginosa, expressed from pET28a:PilT^Pa; the cloning of this plasmid is not described; also called apo-PilT^Pa; wild-type PilT^Pa; source: E. coli BL21-CodonPlus, purified (Ni-NTA, Superdex 200 SEC)) MDITELLAFSAKQGASDLHLSAGLPPMIRVDGDVRRINLPPLEHKQVHALIYDIMNDKQRKDFEEFLETDFSFEVPGVARFRVNAFNQNRGAGAVFRTIPSKVLTMEELGMGEVFKRVSDVPRGLVLVTGPTGSGKSTTLAAMLDYLNNTKYHHILTIEDPIEFVHESKKCLVNQREVHRDTLGFSEALRSALREDPDIILVGEMRDLETIRLALTAAETGHLVFGTLHTTSAAKTIDRVVDVFPAEEKAMVRSMLSESLQSVISQTLIKKIGGGRVAAHEIMIGTPAIRNLIREDKVAQMYSAIQTGGSLGMQTLDMCLKGLVAKGLISRENAREKAKIPENF | 6
K58A PilT from Pseudomonas aeruginosa, purified (enzyme, PilT, Pseudomonas aeruginosa, with K58A; the expression construct of the purified mutant is not described; also called K58A PilT^Pa; K58A mutant; source: purified) MDITELLAFSAKQGASDLHLSAGLPPMIRVDGDVRRINLPPLEHKQVHALIYDIMNDAQRKDFEEFLETDFSFEVPGVARFRVNAFNQNRGAGAVFRTIPSKVLTMEELGMGEVFKRVSDVPRGLVLVTGPTGSGKSTTLAAMLDYLNNTKYHHILTIEDPIEFVHESKKCLVNQREVHRDTLGFSEALRSALREDPDIILVGEMRDLETIRLALTAAETGHLVFGTLHTTSAAKTIDRVVDVFPAEEKAMVRSMLSESLQSVISQTLIKKIGGGRVAAHEIMIGTPAIRNLIREDKVAQMYSAIQTGGSLGMQTLDMCLKGLVAKGLISRENAREKAKIPENF | 6
